From US20230399407A1 (KOREA UNIVERSITY RESEARCH AND BUSINESS FOUNDATION, published 2023) come the findings set out here.

Substitutions are numbered along the chain they refer to.

For assay [1], the target named is T1, Fc alpha receptor-ECD-streptavidin-Alexa488 (human, UniProt P24071 22-227, labeled with Alexa488 fluorescent molecules (sites not given)).
T1 construct: Tetrameric antigen made in Expi293F cells and labelled with Alexa488 for flow cytometry; Any linker or purification tag (Ni-NTA resin was used) is not described; also called Fc alpha receptor-ECD-streptavidin-Alexa488 probe; Fc alpha receptor-ECD-streptavidin-Alexa488 antigen; not shown: streptavidin tag
T1 sequence (P24071 22-227 limits assumed): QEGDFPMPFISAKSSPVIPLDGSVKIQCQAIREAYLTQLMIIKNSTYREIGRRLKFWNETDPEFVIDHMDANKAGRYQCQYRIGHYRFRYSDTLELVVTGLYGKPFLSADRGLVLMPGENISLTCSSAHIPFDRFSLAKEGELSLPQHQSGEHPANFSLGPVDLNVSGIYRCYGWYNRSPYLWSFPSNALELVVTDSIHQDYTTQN
Description: flow cytometry, scFv displayed on E. coli spheroplasts, 50 nM Alexa488-labelled antigen. In general terms: A flow cytometer gives signals particle by particle.

The target in assay [2] is T1, Fc alpha …. As to the kind of experiment: flow cytometry, legend of FIG. 8.

B1: scFv antibody variant JS30 (scFv, V domains shown)
VH: EVQLVESGPGQVKPSETLSLTCSVSGGSISSRDWWGWVRQPPGEGLEWIGEIYHSGTTNYNPSLKSRVTMSMDTSKNQLSLKLTGVTAVDTAVYYCVTYSASDAAFDSWGQGTLVTVSS
VL: ETTLTQSPSSLSASVGDRITITCRASQSISTCLNWYQQKPGKAPKSLIYGASILQSGVSSQFSGSGPGTDFTLTIGSLQPEGFATYYCQQGNSVPLTFGGGTKVDIKR
Turning to B1, in assay [1], the binding result is “binds”.

B2: scFv antibody variant JS41 (scFv, V domains shown)
VH: B1 VH with S102Y
VL: B1 VL with C32Y, N34S, I53N, S63R, G76S, G82D
On to B2, for which the binding result in assay [1] is “binds”.

B3: scFv antibody variant JS9 (scFv, V domains shown)
VH: EVQLVGSGGGVVQPGRSLRLSCAASGFNFDDHAMHWVRQAPGKGLEWVSSISGSGGDTYYADSVKGRFTIARDNSKNTLYLQMNSLRAEDTAVYYCATEARGLAHWGQGTLVTVSS
VL: SSELTQDPAVSVALGQTASITCSGHKLGERYACWYQQKPGQSPVLVIYQDTKRPSGIPERFSGSNTGNTATLTITGTQAMDEADYYCQAWDSSTVVFGGGTKLTVLG
For the molecule B3, the binding result in assay [1] is recorded as “binds”.

B4: scFv antibody variant JS144 (scFv, V domains shown)
VH: QVQLQESGGGLVQPGGSLRLACAGSGFTFSNFAMAWVRLAPGKGLEWVSGISDDGTITDYADSVKGRFTISRDNSKNTLYLQMNSLRAEDTAVYYCVRVPSPAPVQGPDYWGQGTTVTVSS
VL: DVVMTQSPSAMSASVGDRVTITCRASQGISNYLAWFQQKPGKVPKRLIYAASSLQGGVPSRFRGRGSGTDFTLSISCLQSEDFATYYCQQYHSYPLTFGGGTKLSVLG
As for B4, the binding result in assay [1] was “binds”.

B5: scFv antibody variant JS48 (scFv, V domains shown)
VH: B4 VH with A21T, R98K, V105M, T116L
VL: B1 VL with I19V, C32Y, I53N, S65R, G76S, G82D
With B5, in assay [1], the binding result is “binds”.

B6: scFv antibody variant JS116 (scFv, V domains shown)
VH: B4 VH with S101P
VL: B4 VL
notes: No full VH/VL is printed
For the molecule B6, in assay [2], the binding result is “binds”.
